Results from paper PMC3691460 (The Journal of Cell Biology, 2013).
Each block holds one molecule with its values, some of them ahead of it.

How the values were obtained:
[1] = test system: αIIbβ3 headpiece ligand binding site; assay: Occupancy of ligand binding site by soaked RGD peptide; settings: 10 mM GRGDSP, Mg/Ca (5 mM Mg/1 mM Ca), 24 h, closed headpiece crystals
[2] = molecular target: αIIbβ3 integrin headpiece (UniProt P08514); assay: crystal structure
[3] = molecular target: T1, αIIb subunit β-propeller domain (UniProt P08514); assay: crystal structure
T1 sequence: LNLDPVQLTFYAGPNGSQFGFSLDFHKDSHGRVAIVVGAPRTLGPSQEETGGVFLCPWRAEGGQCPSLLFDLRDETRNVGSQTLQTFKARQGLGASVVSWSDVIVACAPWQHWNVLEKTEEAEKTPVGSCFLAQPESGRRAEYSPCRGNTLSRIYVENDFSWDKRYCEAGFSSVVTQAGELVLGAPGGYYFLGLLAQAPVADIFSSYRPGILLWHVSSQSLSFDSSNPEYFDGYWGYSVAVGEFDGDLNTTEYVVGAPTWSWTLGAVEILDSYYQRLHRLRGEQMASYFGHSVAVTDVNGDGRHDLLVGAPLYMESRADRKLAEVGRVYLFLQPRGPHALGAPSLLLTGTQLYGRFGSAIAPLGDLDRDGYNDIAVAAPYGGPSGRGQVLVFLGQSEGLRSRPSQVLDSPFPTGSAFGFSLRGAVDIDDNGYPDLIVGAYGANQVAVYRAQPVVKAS

[4] = molecular target: T2, β3 subunit PSI, hybrid, βI, and I-EGF-1 domains (UniProt P05106); assay: crystal structure
T2 sequence: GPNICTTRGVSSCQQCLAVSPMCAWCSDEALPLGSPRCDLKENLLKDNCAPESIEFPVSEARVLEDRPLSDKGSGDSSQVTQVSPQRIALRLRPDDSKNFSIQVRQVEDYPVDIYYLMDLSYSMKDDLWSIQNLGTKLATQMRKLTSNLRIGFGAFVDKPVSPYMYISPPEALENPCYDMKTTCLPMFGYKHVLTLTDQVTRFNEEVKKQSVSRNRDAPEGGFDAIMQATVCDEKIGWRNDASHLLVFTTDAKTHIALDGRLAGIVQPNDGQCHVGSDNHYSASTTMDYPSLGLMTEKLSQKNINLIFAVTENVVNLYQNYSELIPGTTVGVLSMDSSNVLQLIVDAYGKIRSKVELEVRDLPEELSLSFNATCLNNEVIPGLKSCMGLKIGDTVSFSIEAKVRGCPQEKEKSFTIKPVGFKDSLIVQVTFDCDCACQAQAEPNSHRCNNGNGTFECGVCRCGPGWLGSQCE

α4β7 headpiece = settings: EM; ref Yu et al., 2012; cited from earlier work
[5] = molecular target: T3, αIIbβ3 integrin headpiece (UniProt P08514;P05106); assay: crystal structure
T3 sequence 1: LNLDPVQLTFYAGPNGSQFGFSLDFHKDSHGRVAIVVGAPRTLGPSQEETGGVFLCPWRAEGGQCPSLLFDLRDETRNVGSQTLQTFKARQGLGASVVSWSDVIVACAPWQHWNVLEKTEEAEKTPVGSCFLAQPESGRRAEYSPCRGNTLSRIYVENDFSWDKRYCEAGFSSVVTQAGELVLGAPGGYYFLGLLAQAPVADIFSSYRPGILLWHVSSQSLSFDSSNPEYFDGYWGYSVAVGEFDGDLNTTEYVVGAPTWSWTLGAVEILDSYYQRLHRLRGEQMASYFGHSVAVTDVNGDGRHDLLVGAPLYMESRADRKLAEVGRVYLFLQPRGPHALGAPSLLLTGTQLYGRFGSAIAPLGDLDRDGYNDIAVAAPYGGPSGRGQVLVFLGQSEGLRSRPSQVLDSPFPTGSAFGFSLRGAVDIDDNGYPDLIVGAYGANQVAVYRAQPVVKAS
T3 sequence 2: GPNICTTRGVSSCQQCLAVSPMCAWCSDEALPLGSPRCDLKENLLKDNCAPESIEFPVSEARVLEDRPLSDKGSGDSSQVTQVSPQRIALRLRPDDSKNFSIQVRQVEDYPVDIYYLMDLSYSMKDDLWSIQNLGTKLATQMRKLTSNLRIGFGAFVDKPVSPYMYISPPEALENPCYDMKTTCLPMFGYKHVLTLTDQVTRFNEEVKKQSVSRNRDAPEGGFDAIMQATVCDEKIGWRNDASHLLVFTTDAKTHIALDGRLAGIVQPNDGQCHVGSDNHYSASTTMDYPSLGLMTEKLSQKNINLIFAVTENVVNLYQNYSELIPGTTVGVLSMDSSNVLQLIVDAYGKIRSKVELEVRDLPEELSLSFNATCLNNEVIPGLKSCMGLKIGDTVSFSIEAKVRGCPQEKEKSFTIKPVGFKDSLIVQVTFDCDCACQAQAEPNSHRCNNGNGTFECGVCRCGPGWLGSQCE

Bound ligand / occupation of the ligand binding site [1]: diffraction revealed bound peptide
Molecule: N=C(N)NCCC[C@H](NC(=O)CN)C(=O)NCC(=O)N[C@@H](CC(=O)O)C(=O)N[C@@H](CO)C(=O)N1CCC[C@H]1C(=O)O [GRGDSP]

binding result [3]: binds
binding result [4]: binds
Molecule: GRGDSP [GRGDSP peptide]

binding result [5]: binds
Molecule: GRGDSPK [GRGDSPK peptide]

Continued, molecule first:

Molecule: GRGDSP peptide
Kd [2]: 0.34 to 10 mM
fold higher affinity of the open than of the closed headpiece [2]: > 200 fold

B1: MAdCAM-1: ligand binding to the α4β7 headpiece (protein, UniProt Q13477 19-382, looked up)
Mucosal addressin cell …: QSLQVKPLQVEPPEPVVAVALGASRQLTCRLACADRGASVQWRGLDTSLGAVQSDTGRSVLTVRNASLSAAGTRVCVGSCGGRTFQHTVQLLVYAFPDQLTVSPAALVPGDPEVACTAHKVTPVDPNALSFSLLVGGQELEGAQALGPEVQEEEEEPQGDEDVLFRVTERWRLPPLGTPVPPALYCQATMRLPGLELSHRQAIPVLHSPTSPEPPDTTSPESPDTTSPESPDTTSQEPPDTTSPEPPDKTSPEPAPQQGSTHTPRSPGSTRTRRPEISQAGPTQGEVIPTGSSKPAGDQLPAALWTSSAVLGLLLLALPTYHLWKRCRHLAEDDTHPPASLRLLPQVSAWAGLRGTGQVGISPS
State of the headpiece upon binding (α4β7 headpiece): either an intermediate or open state
